To fix the notation:
B1: Halo-TRAK2 [not stated] / Myc-KIF5B [mouse] (parent complex)
chain 1: MSQSQNAIFTSPTGEENLMNSNHRDSESITDVCSNEDLPEVELVSLLEEQLPQYRLKVDTLFLYENQDWTQSPHQRQHASDALSPVLAEETFRYMILGTDRVEQMTKTYNDIDMVTHLLAERDRDLELAARIGQALLKRNHVLSEQNESLEEQLGQAFDQVNQLQHELCKKDELLRIVSIASEESETDSSCSTPLRFNESFSLSQGLLQLEMLQEKLKELEEENMALRSKACHIKTETVTYEEKEQQLVSDCVKELRETNAQMSRMTEELSGKSDELIRYQEELSSLLSQIVDLQHKLKEHVIEKEELKLHLQASKDAQRQLTMELHELQDRNMECLGMLHESQEEIKELRSRSGPTAHLYFSQSYGAFTGESLAAEIEGTMRKKLSLDEESSLFKQKAQQKRVFDTVRIANDTRGRSISFPALLPIPGSNRSSVIMTAKPFESGLQQTEDKSLLNQGSSSEEVAGSSQKMGQPGPSGDSDLATALHRLSLRRQNYLSEKQFFAEEWQRKIQVLADQKEGVSGCVTPTESLASLCTTQSEITDLSSASCLRGFMPEKLQIVKPLEGSQTLYHWQQLAQPNLGTILDPRPGVITKGFTQLPGDAIYHISDLEEDEEEGITFQVQQPLEVEEKLSTSKPVTGIFLPPITSAGGPVTVATANPGKCLSCTNSTFTFTTCRILHPSDITQVTPSSGFPSLSCGSSGSSSSNTAVNSPALSYRLSIGESITNRRDSTTTFSSTMSLAKLLQERGISAKVYHSPISENPLQPLPKSLAIPSTPPNSPSHSPCPSPLPFEPRVHLSENFLASRPAETFLQEMYGLRPSRNPPDVGQLKMNLVDRLKRLGIARVVKNPGAQENGRCQEAEIGPQKPDSAVYLNSGSSLLGGLRRNQSLPVIMGSFAAPVCTSSPKMGVLKED
chain 2: MADPAECNIKVMCRFRPLNESEVNRGDKYVAKFQGEDTVMIASKPYAFDRVFQSSTSQEQVYNDCAKKIVKDVLEGYNGTIFAYGQTSSGKTHTMEGKLHDPEGMGIIPRIVQDIFNYIYSMDENLEFHIKVSYFEIYLDKIRDLLDVSKTNLSVHEDKNRVPYVKGCTERFVCSPDEVMDTIDEGKSNRHVAVTNMNEHSSRSHSIFLINVKQENTQTEQKLSGKLYLVDLAGSEKVSKTGAEGAVLDEAKNINKSLSALGNVISALAEGSTYVPYRDSKMTRILQDSLGGNCRTTIVICCSPSSYNESETKSTLLFGQRAKTIKNTVCVNVELTAEQWKKKYEKEKEKNKTLRNTIQWLENELNRWRNGETVPIDEQFDKEKANLEAFTADKDIAITSDKPAAAVGMAGSFTDAERRKCEEELAKLYKQLDDKDEEINQQSQLVEKLKTQMLDQEELLASTRRDQDNMQAELNRLQAENDASKEEVKEVLQALEELAVNYDQKSQEVEDKTKEYELLSDELNQKSATLASIDAELQKLKEMTNHQKKRAAEMMASLLKDLAEIGIAVGNNDVKQPEGTGMIDEEFTVARLYISKMKSEVKTMVKRCKQLESTQTESNKKMEENEKELAACQLRISQHEAKIKSLTEYLQNVEQKKRQLEESVDSLGEELVQLRAQEKVHEMEKEHLNKVQTANEVKQAVEQQIQSHRETHQKQISSLRDEVEAKEKLITDLQDQNQKMVLEQERLRVEHERLKATDQEKSRKLHELTVMQDRREQARQDLKGLEETVAKELQTLHNLRKLFVQDLATRVKKSAEVDSDDTGGSAAQKQKISFLENNLEQLTKVHKQLVRDNADLRCELPKLEKRLRATAERVKALESALKEAKENASRDRKRYQQEVDRIKEAVRSKNMARRGHSAQIAKPIRPGQHPAASPTHPGTVRGGGSFVQNNQPVGLRGGGGKQS

In the test the parent is B1. In words: co-immunoprecipitation (Halo antibody IP, western blot quantification); extracts from COS-7 cells transfected with Myc-KIF5B and Halo-tagged constructs; mean ± s.d. from three independent experiments; parent: 0.65; read off a plot.
Regarding chain 1 I132D, the response is about 0.6.
The figure for chain 1 A129V, chain 1 A130V is about 0.61.

(Values after PMC8319186, “Mitochondrial adaptor TRAK2 activates and functionally links opposing kinesin and dynein motors” (Nature Communications, 2021).)
